Here are results for one substance from paper PMC7405475.

The target in this experiment is His6-maltose binding protein-SARS-CoV-2 N3 (spacer B/N3 region, residues 365-419) (SARS-CoV-2) (UniProt P0DTC9). Kind of experiment: SEC-MALS. A general note: Size exclusion chromatography separates by hydrodynamic size, large species first.

The term stoichiometry N denotes a count of units in the complex or per binding partner. “His6-maltose binding protein-SARS-CoV-2 N3 (spacer B/N3 region, residues 365-419) (from UniProt P0DTC9 365-419) (domain or fragment)”: the stoichiometry N is 2.
